Assay [1] deals with recROBO2. As to the kind of experiment: cell-based or functional assay.
Assay [2] addresses T1, Mouse Robo2 (mouse, UniProt Q7TPD3 22-863, limits assumed).
T1 construct: also called mRobo2
T1 sequence: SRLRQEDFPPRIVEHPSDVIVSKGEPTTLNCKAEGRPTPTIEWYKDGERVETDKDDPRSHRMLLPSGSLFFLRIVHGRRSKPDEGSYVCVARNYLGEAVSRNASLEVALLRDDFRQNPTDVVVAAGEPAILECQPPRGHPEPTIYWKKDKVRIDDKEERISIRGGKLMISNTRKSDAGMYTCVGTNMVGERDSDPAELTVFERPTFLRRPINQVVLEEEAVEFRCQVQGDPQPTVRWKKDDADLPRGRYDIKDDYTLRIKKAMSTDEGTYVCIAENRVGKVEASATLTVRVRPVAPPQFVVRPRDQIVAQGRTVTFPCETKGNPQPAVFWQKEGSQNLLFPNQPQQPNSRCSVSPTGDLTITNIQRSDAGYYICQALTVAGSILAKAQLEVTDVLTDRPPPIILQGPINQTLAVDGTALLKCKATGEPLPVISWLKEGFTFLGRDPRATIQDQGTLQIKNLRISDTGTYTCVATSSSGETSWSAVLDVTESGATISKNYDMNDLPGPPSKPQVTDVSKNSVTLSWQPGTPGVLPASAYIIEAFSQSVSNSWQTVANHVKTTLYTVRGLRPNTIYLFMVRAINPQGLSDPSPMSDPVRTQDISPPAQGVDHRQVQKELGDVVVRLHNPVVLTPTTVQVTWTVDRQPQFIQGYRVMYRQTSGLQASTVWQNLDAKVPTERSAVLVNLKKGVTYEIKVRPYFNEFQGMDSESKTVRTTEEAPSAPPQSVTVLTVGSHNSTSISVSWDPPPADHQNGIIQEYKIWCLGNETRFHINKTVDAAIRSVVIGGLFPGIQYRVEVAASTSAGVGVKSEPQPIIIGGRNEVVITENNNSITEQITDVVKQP
As to the kind of experiment: BLI (Octet RED96); CDAB1 captured on anti-human Fc biosensor, mouse Robo2 titrated two-fold from 50 nM. How it is done: (§1) Anti-human Fc (for CDAB1, CDAB5, Fc-rat COL4A3) or anti-Streptavidin (for CDAB3) or HIS1K (COL4A3-His) biosensors were equilibrated in assay buffer (1% BSA in 1×PBS with 0.05% Tween-20) for 10 minutes before the experiment was setup. Immobilizing reagents were diluted to 4 μg/mL in assay buffer and 200 μL pipetted to 96 well plate. Mouse Robo2 or TAs were titrated down, two-fold dilutions (starting at 50 nM as the highest concentration, 7-point dilution). The experiment was conducted using data acquisition software version 10.0 for OCTET96 RED. Test articles were captured using anti-human Fc biosensors for 180 s. Biosensors loaded with test articles were then equilibrated in assay buffer for 120 s. Association was performed in wells with mRobo2 or TA for 180 seconds. Dissociation was performed in wells with assay buffer for 180 s.
(In BLI a coated tip is dipped into the sample, and binding shifts an interference pattern.)

Assay [3] addresses T1, Mouse Robo2. Put plainly: BLI (Octet RED96); test article captured on biosensor (method names CDAB5 on anti-human Fc, result names CDAB6), mouse Robo2 titrated from 50 nM. How it is done:
as §1

For assay [4], the target named is T1, Mouse Robo2. Put plainly: BLI (Octet RED96); CDAB3 on anti-Streptavidin biosensor, mouse Robo2 titrated two-fold from 50 nM. Here is the method: as §1

This note sets out measurements from patent publication US20250320292A1 (PANDION OPERATIONS, published 2025).

Sequence of recROBO2 (Q9HCK4 whole entry): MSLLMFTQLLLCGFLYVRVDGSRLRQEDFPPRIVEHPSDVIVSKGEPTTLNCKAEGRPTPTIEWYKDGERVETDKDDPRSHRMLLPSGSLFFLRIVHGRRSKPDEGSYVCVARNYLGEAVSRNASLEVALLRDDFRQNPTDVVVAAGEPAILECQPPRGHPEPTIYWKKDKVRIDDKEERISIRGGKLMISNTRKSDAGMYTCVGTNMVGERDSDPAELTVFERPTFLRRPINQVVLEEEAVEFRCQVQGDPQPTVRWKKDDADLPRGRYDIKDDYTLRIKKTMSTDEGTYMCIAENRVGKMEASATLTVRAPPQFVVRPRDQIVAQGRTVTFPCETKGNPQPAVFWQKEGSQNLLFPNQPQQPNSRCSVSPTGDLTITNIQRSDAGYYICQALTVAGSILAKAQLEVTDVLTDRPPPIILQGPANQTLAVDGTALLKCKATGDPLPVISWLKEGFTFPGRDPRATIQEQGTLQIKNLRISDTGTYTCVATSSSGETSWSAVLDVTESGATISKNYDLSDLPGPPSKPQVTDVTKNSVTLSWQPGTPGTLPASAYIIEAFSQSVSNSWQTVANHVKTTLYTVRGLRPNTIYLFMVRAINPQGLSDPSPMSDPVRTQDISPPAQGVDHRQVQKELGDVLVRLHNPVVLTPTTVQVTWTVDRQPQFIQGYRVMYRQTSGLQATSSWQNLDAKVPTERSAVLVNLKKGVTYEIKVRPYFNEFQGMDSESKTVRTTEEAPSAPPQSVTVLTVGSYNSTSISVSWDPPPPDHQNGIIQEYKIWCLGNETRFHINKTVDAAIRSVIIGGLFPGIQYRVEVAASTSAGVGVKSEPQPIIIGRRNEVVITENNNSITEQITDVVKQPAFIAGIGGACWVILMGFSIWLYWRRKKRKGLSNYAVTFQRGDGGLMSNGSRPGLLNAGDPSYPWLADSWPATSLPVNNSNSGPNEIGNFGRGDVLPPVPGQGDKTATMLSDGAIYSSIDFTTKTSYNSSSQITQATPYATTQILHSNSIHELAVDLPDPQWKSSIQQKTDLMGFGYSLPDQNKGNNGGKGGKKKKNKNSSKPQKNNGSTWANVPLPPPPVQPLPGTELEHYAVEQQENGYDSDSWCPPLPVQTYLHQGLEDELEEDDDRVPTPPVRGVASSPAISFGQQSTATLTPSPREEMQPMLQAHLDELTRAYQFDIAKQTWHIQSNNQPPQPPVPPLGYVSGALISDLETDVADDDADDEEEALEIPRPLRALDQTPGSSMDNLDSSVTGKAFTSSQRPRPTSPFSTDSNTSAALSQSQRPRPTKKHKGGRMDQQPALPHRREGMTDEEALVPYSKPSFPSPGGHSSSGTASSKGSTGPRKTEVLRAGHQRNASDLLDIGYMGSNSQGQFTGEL

B1: CDAB1 (antibody, human IgG1, kappa)
heavy: EVQLVQSGAEVKKPGASVKVSCKASGYTFTGYYMHWVRQAPGQGLEWMGWINPKNGDTEFPQKFQGRVTMTRDTSITTAYMDLSRLRSDDTAVYYCARESGDDAFDIWGQGTMVTVSSASTKGPSVFPLAPSSKSTSGGTAALGCLVKDYFPEPVTVSWNSGALTSGVHTFPAVLQSSGLYSLSSVVTVPSSSLGTQTYICNVNHKPSNTKVDKKVEPKSCDKTHTCPPCPAPEAAGAPSVFLFPPKPKDTLMISRTPEVTCVVVDVSHEDPEVKFNWYVDGVEVHNAKTKPREEQYNSTYRVVSVLTVLHQDWLNGKEYKCKVSNKALPAPIEKTISKAKGQPREPQVYTLPPSREEMTKNQVSLTCLVKGFYPSDIAVEWESNGQPENNYKTTPPVLDSDGSFFLYSKLTVDKSRWQQGNVFSCSVMHEALHNHYTQKSLSLSPGGGGGSDCGPPPDIPNARPILGRHSKFAEQSKVAYSCNNGFKQVPDKSNIVVCLENGQWSSHETFCEKSCVAPERLSFASLKKEYLNMNFFPVGTIVEYECRPGFRKQPPLPGKATCLEDLVWSPVAQFCKKKSCPNPKDLDNGHINIPTGILFGSEINFSCNPGYRLVGVSSTFCSVTGNTVDWDDEFPVCTEIHCPEPPKINNGIMRGESDSYTYSQVVTYSCDKGFILVGNASIYCTVSKSDVGQWSSPPPRCIEKSKVPTKKPTINVPSTGTPSTPQKPTTESVPNPGDQPTPQKPSTVKVSATQHVPVTKTTVRHPIRTSTDKGEPNTG
light: DIVMTQSPSSLSASVGDRVTITCRASQSISSYLNWYQQKPGKAPKLLIYAASSLQSGVPSRFSGSGSGTDFTLTISSLQPEDFATYYCQQSVGLFFGGGTKVEIKRTVAAPSVFIFPPSDEQLKSGTASVVCLLNNFYPREAKVQWKVDNALQSGNSQESVTEQDSKDSTYSLSSTLTLSKADYEKHKVYACEVTHQGLSSPVTKSFNRGEC
notes: Anti-ROBO2 tether in IgG1 format with mouse CD55 ECD fused to the C-terminus of the heavy chain; also called CDAB1-HC; CDAB1-LC
The Kd is the free concentration of one partner at which half of the binding sites on the other are occupied at equilibrium, for simple one-to-one binding. Low values mean tighter binding, high ones weaker binding. Broadly, the koff is a measure of how fast the partners let go of each other. Low values mean slow dissociation, high ones fast dissociation. Usually kon stands for the second-order rate constant of association. A lower kon goes with slow association. In the case of B1, in assay [1], the “tethered IC50(nM), inhibition of C5b-9a deposition (Hycult classical complement mouse assay, tethered format)” value was 1.5 nM. In assay [2], this molecule registered a Kd of 1.38 nM, an off-rate (koff) of 0.00129 s⁻¹ and a kon of 938000 M⁻¹ s⁻¹.

B2: CDAB6 (Fc fusion)
chain: DCGPPPDIPNARPILGRHSKFAEQSKVAYSCNNGFKQVPDKSNIVVCLENGQWSSHETFCEKSCVAPERLSFASLKKEYLNMNFFPVGTIVEYECRPGFRKQPPLPGKATCLEDLVWSPVAQFCKKKSCPNPKDLDNGHINIPTGILFGSEINFSCNPGYRLVGVSSTFCSVTGNTVDWDDEFPVCTEIHCPEPPKINNGIMRGESDSYTYSQVVTYSCDKGFILVGNASIYCTVSKSDVGQWSSPPPRCIEKSKVPTKKPTINVPSTGTPSTPQKPTTESVPNPGDQPTPQKPSTVKVSATQHVPVTKTTVRHPIRTSTDKGEPNTGGGGGSGGGGSGGGGSGGGGSDKTHTCPPCPAPEAAGAPSVFLFPPKPKDTLMISRTPEVTCVVVDVSHEDPEVKFNWYVDGVEVHNAKTKPREEQYNSTYRVVSVLTVLHQDWLNGKEYKCKVSNKALPAPIEKTISKAKGQPREPQVYTLPPSREEMTKNQVSLTCLVKGFYPSDIAVEWESNGQPENNYKTTPPVLDSDGSFFLYSKLTVDKSRWQQGNVFSCSVMHEALHNHYTQKSLSLSPGGGGGSGGGGSGGGGSGGGGSEVQLVQSGAEVKKPGASVKVSCKASGYTFTGYYMHWVRQAPGQGLEWMGWINPKNGDTEFPQKFQGRVTMTRDTSITTAYMDLSRLRSDDTAVYYCARESGDDAFDIWGQGTMVTVSSGGGGGSGGGGSGGGGSDIVMTQSPSSLSASVGDRVTITCRASQSISSYLNWYQQKPGKAPKLLIYAASSLQSGVPSRFSGSGSGTDFTLTISSLQPEDFATYYCQQSVGLFFGGGTKVEIK
notes: Same V domains as CDAB1
In assay [3], B2 gave a dissociation constant Kd of 7.13 nM, a koff of 0.00294 s⁻¹ and a kon of 412000 M⁻¹ s⁻¹.

B3: CDAB3 (scFv)
chain: DCGPPPDIPNARPILGRHSKFAEQSKVAYSCNNGFKQVPDKSNIVVCLENGQWSSHETFCEKSCVAPERLSFASLKKEYLNMNFFPVGTIVEYECRPGFRKQPPLPGKATCLEDLVWSPVAQFCKKKSCPNPKDLDNGHINIPTGILFGSEINFSCNPGYRLVGVSSTFCSVTGNTVDWDDEFPVCTEIHCPEPPKINNGIMRGESDSYTYSQVVTYSCDKGFILVGNASIYCTVSKSDVGQWSSPPPRCIEKSKVPTKKPTINVPSTGTPSTPQKPTTESVPNPGDQPTPQKPSTVKVSATQHVPVTKTTVRHPIRTSTDKGEPNTGGGGGSGGGGSGGGGSGGGGSEVQLVQSGAEVKKPGASVKVSCKASGYTFTGYYMHWVRQAPGQGLEWMGWINPKNGDTEFPQKFQGRVTMTRDTSITTAYMDLSRLRSDDTAVYYCARESGDDAFDIWGQGTMVTVSSGGGGGSGGGGSGGGGSDIVMTQSPSSLSASVGDRVTITCRASQSISSYLNWYQQKPGKAPKLLIYAASSLQSGVPSRFSGSGSGTDFTLTISSLQPEDFATYYCQQSVGLFFGGGTKVEIKHHHHHH
notes: Fc-less construct with the same V domains as CDAB1; It was loaded on 'anti-Streptavidin' biosensors, and no biotinylation is described
Regarding B3, in assay [4], the equilibrium dissociation constant (Kd) is 13.2 nM, the koff worked out at 0.00291 s⁻¹ and the on-rate (kon) is 221000 M⁻¹ s⁻¹.
